The text below walks through data of paper PMC3321547 (Biochemistry, 2009).

Values joined by “and” are separate entries in the source; they are usually repeats but may differ in a detail not shown here. Equal entries are not always repeated.

As usually defined, the Kd is the free concentration of one partner at which half of the binding sites on the other are occupied at equilibrium, for simple one-to-one binding. Low readings indicate tighter binding, high ones weaker binding. One may read the koff as the rate constant with which the complex falls apart. A high value points to a short-lived complex.

Experiment [1] deals with T1, DKH412 (Drosophila kinesin heavy chain residues 1-412, dimeric head construct) (Drosophila, UniProt P17210 1-412). As to the kind of experiment: inhibition of mADP release from the heads.
Experiment [2] concerns the target T1, DKH412 (Drosophila kinesin heavy chain …). As to the kind of experiment: inhibition of basal steady state ATPase.
The target is the same in experiment [3]. As to the kind of experiment: inhibition of mADP release from the heads. This is another data set of the same source.
Experiment [4] shares this target. As to the kind of experiment: inhibition of basal steady state ATPase. The source holds these as a separate data set.
The target is the same in experiment [5]. As to the kind of experiment: FRET or BRET. A general note: BRET reads energy transfer from a luciferase to a nearby fluorophore.
Experiment [6] has the same target. As to the kind of experiment: co-sedimentation.

B1: NF910-952 (non-fusion kinesin tail peptide, residues 910-952) (peptide)
chain: not shown
B1: the Kd in experiment [1] amounted to 330 nM; in experiment [2] it was 66 nM; in experiment [3], 21 nM. In addition, in experiment [4], the “stoichiometry N” value is 1 tail peptide per two head peptides.

B2: NF910-952mGFP (non-fusion kinesin tail peptide 910-952 with C-terminal mGFP) (domain or fragment)
chain: not shown
On to B2, for which, in experiment [5], the Kd was 400 nM, the koff is around 32 s⁻¹, the “observed rate of dissociation with a 5-fold excess of unlabelled tail (trace b)” value was 30.9 s⁻¹ and the “observed rate of dissociation with a 20-fold excess of unlabelled tail (trace c)” value came to 32.8 s⁻¹.

B3: TT910-952mGFP (thioredoxin fusion of kinesin tail residues 910-952 with C-terminal mGFP) (domain or fragment)
chain: not shown
For the molecule B3, the “stoichiometry N” value in experiment [6] was < 0.5 TT910-952mGFP per DKH412 monomer and ~0.5 tail peptide per head peptide.

Regarding AVRQKHLGRRGPQAQIAKPIRSGQGATS (domain or fragment, Drosophila) [TT927-952 (thioredoxin fusion of kinesin tail residues 927-952)], the Kd in experiment [4] is below 100 nM.
